Assay results reported in article PMC6949295 (2020).

How the values were obtained:
Experiment in all cases: co-immunoprecipitation (IP: HA, blot: Flag)
Conditions in all cases: 293T cells; parent: 1.00
[1] = molecular target: HA-Exo70(S47D)
[2] = molecular target: HA-Exo70(S47D/S59D)
[3] = molecular target: HA-Exo70(S59D)

Exo70 wild type, HA-tagged and Flag-tagged copies co-expressed (from UniProt O54922) S47D
response (relative band intensity) [1]: 1

Exo70 wild type, HA-tagged and Flag-tagged copies co-expressed (from UniProt O54922) S47D; S59D
response (relative band intensity) [2]: 0.96

Exo70 wild type, HA-tagged and Flag-tagged copies co-expressed (from UniProt O54922) S59D
response (relative band intensity) [3]: 1
